These results are taken from US20130347134A1, “TRANSGENIC VON WILLEBRAND FACTOR ANIMALS AND USES THEREOF” (priority 2012, published 2013).

For the assay, the system named is murine platelets. Kind of assay: In vitro flow chamber, mouse platelets on recombinant VWF-A1, 800 s^-1. To be noted: wall shear rate 800 s^−1. It is filed as cell-based. The method, then:
The protein was subsequently used in a series of in vitro flow chamber assays to assess function. Washed human or murine platelets (5×10^7/ml) were infused through a parallel plate flow chamber containing glass cover slips coated with either human VWF-A1 or mouse VWF-A1 protein (100 μg/ml final concentration) at a shear rate of 800 s^−1. After 5 minutes of continuous flow, adherent platelets were quantified.
In the case of the latter, the murine A1 fragment was inserted into pET-11b (Stratagene) and purified as previously described (Miura et al., 2000).
Support for this hypothesis is provided by mutagenesis studies. By analyzing the data obtained from the crystal structure of the murine VWF-A1 domain, the inventors have identified several residues that may participate in interactions with GPIb α (FIG. 15C). Residue 1326 was initially chosen for study and was mutated to the corresponding amino acid at the identical location in its human counterpart (from Arg to His). Subsequently, the ability of murine and human platelets to interact with this mutant protein substrate was evaluated at a wall shear rate of 800 s^−1. Incorporation of a histidine for arginine at position 1326 in murine VWF-A1 reduced murine platelet adhesion by about 5-fold and increased translocation velocities of cells by about 7-fold as compared to the WT mouse protein (FIGS. 13 and 16). […]

B1: His-tag M VWF-A1: recombinant murine VWF-A1 with N-terminus His tag (protein)
chain: QEPGGLVAPPTDAPVSSTTPYVEDTPEPPLHNFYCSKLLDLVFLLDGSSMLSEAEFEVLKAFVVGMMERLHISQKRIRVAVVEYHDGSRAYLELKARKRPSELRRITSQIKYTGSQVASTSEVLKYTLFQIFGKIDRPEASHITLLLTASQEPPRMARNLVRYVQGLKKKKVIVIPVGIGPHASLKQIRLIEKQAPENKAFLLSGVDELEQRRDEIVSYLCDLAPEAPAPTQPP
For B1, the “platelets that adhered to and translocated” value turned out to be 449±53 platelets/mm^2.
